In general, Kd refers to the concentration at which binding is half-saturated. High values mean a looser complex, low ones a tighter complex.

Test [1] has as its target T1, Escherichia coli tryptophan synthase alpha subunit (αTS), A198W variant (E. coli, UniProt P0A877 1-268, A198W).
T1 sequence: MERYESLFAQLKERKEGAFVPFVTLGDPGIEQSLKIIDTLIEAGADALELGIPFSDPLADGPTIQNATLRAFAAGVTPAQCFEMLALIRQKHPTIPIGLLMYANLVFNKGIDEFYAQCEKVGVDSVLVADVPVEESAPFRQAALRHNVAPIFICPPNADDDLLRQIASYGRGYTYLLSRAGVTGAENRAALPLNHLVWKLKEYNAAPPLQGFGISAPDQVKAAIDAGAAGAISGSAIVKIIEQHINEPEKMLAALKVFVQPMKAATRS
Nature of the test: ITC. In general terms: Isothermal titration calorimetry measures the heat released or taken up as one component is titrated into another.

Test [2] has as its target T2, Escherichia coli tryptophan synthase beta subunit (βTS) (E. coli, UniProt P0A879 1-397).
T2 construct: tryptophan synthase beta subunit (βTS), E. coli; No removal of the hexahistidine tag is mentioned; also called beta subunit of TS; source: E. coli BL21 (DE3*), purified (Ni-NTA, S200 size exclusion)
T2 sequence (looked up): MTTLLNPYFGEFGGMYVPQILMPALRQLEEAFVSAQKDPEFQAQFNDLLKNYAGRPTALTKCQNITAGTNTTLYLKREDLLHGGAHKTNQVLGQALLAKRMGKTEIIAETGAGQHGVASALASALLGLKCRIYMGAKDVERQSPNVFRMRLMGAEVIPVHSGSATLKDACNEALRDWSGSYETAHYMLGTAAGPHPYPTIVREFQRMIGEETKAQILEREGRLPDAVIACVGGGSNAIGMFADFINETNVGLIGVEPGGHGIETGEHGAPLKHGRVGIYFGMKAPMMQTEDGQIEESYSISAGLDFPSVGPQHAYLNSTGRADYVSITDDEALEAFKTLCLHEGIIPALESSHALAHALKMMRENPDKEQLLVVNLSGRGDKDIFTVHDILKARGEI
Nature of the test: ITC; αTS subunit (WT or A198W) binding to the βTS subunit; which protein was titrated, buffer and temperature are not told in the main text (Supplementary Figure 5). Conditions: both partners purified.

The target in test [3] is T2, Escherichia coli tryptophan synthase …. Nature of the test: cell-based or functional assay.

B1: Escherichia coli tryptophan synthase beta subunit (βTS) (enzyme)
chain: MTTLLNPYFGEFGGMYVPQILMPALRQLEEAFVSAQKDPEFQAQFNDLLKNYAGRPTALTKCQNITAGTNTTLYLKREDLLHGGAHKTNQVLGQALLAKRMGKTEIIAETGAGQHGVASALASALLGLKCRIYMGAKDVERQSPNVFRMRLMGAEVIPVHSGSATLKDACNEALRDWSGSYETAHYMLGTAAGPHPYPTIVREFQRMIGEETKAQILEREGRLPDAVIACVGGGSNAIGMFADFINETNVGLIGVEPGGHGIETGEHGAPLKHGRVGIYFGMKAPMMQTEDGQIEESYSISAGLDFPSVGPQHAYLNSTGRADYVSITDDEALEAFKTLCLHEGIIPALESSHALAHALKMMRENPDKEQLLVVNLSGRGDKDIFTVHDILKARGEI
The molecule B1 had a Kd in test [1] of 28 nM.

B2: Escherichia coli tryptophan synthase alpha subunit (αTS), wild type (enzyme, E. coli, UniProt P0A877 1-268, looked up)
chain: MERYESLFAQLKERKEGAFVPFVTLGDPGIEQSLKIIDTLIEAGADALELGIPFSDPLADGPTIQNATLRAFAAGVTPAQCFEMLALIRQKHPTIPIGLLMYANLVFNKGIDEFYAQCEKVGVDSVLVADVPVEESAPFRQAALRHNVAPIFICPPNADDDLLRQIASYGRGYTYLLSRAGVTGAENRAALPLNHLVAKLKEYNAAPPLQGFGISAPDQVKAAIDAGAAGAISGSAIVKIIEQHINEPEKMLAALKVFVQPMKAATRS
notes: tryptophan synthase alpha subunit (αTS, product of trpA), E. coli; Axe et al., 2014) for the construct and its purification; also called WT αTS; WT; source: E. coli BL21 (DE3*), purified as previously (Axe and Boehr, 2013; Axe et al., 2014; O'Rourke et al., 2019
The molecule B2 registered a Kd in test [2] of roughly 25 nM.

B3: Escherichia coli tryptophan synthase alpha subunit (αTS), A198W variant (enzyme, E. coli, UniProt P0A877 1-268, looked up)
chain: MERYESLFAQLKERKEGAFVPFVTLGDPGIEQSLKIIDTLIEAGADALELGIPFSDPLADGPTIQNATLRAFAAGVTPAQCFEMLALIRQKHPTIPIGLLMYANLVFNKGIDEFYAQCEKVGVDSVLVADVPVEESAPFRQAALRHNVAPIFICPPNADDDLLRQIASYGRGYTYLLSRAGVTGAENRAALPLNHLVWKLKEYNAAPPLQGFGISAPDQVKAAIDAGAAGAISGSAIVKIIEQHINEPEKMLAALKVFVQPMKAATRS
notes: tryptophan synthase alpha subunit (αTS, product of trpA), E. coli, with the substitution A198W; Made by QuikChange site-directed mutagenesis of the wild-type αTS plasmid; also called A198W αTS; source: E. coli BL21 (DE3*), purified as previously (Axe and Boehr, 2013; Axe et al., 2014; O'Rourke et al., 2019)
On to B3, for which, in test [3], the “kcat/KM of the full TS complex reaction (production of tryptophan from IGP, 290 nm; 50 µM α2β2 TS complex)” value was 9900 M⁻¹ s⁻¹ and the “kcat/KM of the βTS assay in the presence of αTS (production of tryptophan from indole, 290 nm; 0.5 µM α2β2 TS complex)” value was found to be 190000 M⁻¹ s⁻¹. This molecule also yielded a Kd in test [2] of roughly 25 nM.

The record behind these values is article PMC8187860, “Substitution of a Surface-Exposed Residue Involved in an Allosteric Network Enhances Tryptophan Synthase Function in Cells” (Frontiers in Molecular Biosciences, 2021).
